{
  "source": "patent US20190201494A1",
  "about": "“COMPOSITIONS AND METHODS FOR TREATING NICOTINE WITHDRAWAL” (STC UNM, priority 2016, published 2019)",
  "key": {"[1]": {"system": "smokers, 36 hours of smoking abstinence", "experiment": "Replication crossover study: Questionnaire on Smoking Urges-Brief on Day 2 of 36 hours smoking abstinence (Example 2)", "assay_type": "in vivo, human", "text": "Results from Day 2 are presented. The main differences between Example 1 and Example 2 are: (1) parallel vs crossover design, and (2) placebo content: the parallel design placebo was normal saline, the crossover design was 8.7% NaCl. The purpose of increasing the placebo salt content in the crossover study was to maintain the blind.\nStudy participants began their first night of smoking abstinence at 20:00 prior to reporting to the inpatient unit of University of New Mexico Clinical and Translational Science Center at 11:30 the following day. During Day 1 at the hospital, participants provided a CO sample, which had to be 50% of their measurement at screening or less than 7 ppm and a negative breath alcohol test (0.00%). Additional criteria for session continuation included negative urine drug test and vitals within normal limits as described in the “Participants” section above. The study nurse evaluated the nares for abnormalities and checked POC glucose to ensure subjects were within normal limits prior to receiving spray.\nDuring Day 1, participants were administered spray at 12:40, ate lunch at 13:00 and completed appetite ratings and a snacking test. Participants ate dinner at 19:00 and lights were turned off at 21:00.\nThe following morning, participants completed Questionnaire of Smoking Urges at 7:50. Prior to this first questionnaire administration, participants provided a urine sample, which had to be negative for illicit substances, and a CO sample, which had to be either 50% lower than the value on day 1, or less than 7 ppm. An intravenous line was established at 6:45 and a baseline blood sample was drawn. Study nurse checked POC glucose and completed a nares evaluation to confirm participant was within normal limits to receive spray. Spray administration occurred at 8:00, followed by breakfast at 8:20. Post-spray Questionnaire of Smoking Urges was completed at 8:15, 8:45, 9:15, 9:45, 10:30 and 11:30. During this time blood samples were taken for additional analyses. At noon, study nurse evaluated the nares to rule out abnormality and checked POC glucose to ensure that results were within normal limits. The two sessions were separated by one week.\nUrges to smoke were rated using the 10-item Questionnaire on Smoking Urges-Brief (Cox et al., 2001. Nicotine Tob Res 3(1):7-16) that consists of 10-questions. The answers are scored from 1 (strongly disagree) to 7 (strongly agree). These questions are the bases for the two factor derived subscales. Factor 1 subscale reflects a strong desire and intention to smoke with smoking perceived as rewarding. Factor 2 subscale reflects an anticipation of relief from negative affect with an urgent desire to smoke. These two subscales were sub-analyses stemming from our main (overall) QSU-Brief analysis. Cravings were measured at −15, 0, +20, +60, +70, +80, +90 and +120 minutes from spray administration on Day 2.\n(§1) Placebo contained 8.7% NaCl. Per FDA approved protocol, the product was prepared in a biosafety cabinet of UNM Translational Radiopharmacy. Drug Preparation occurred 30 minutes before administration. […] or placebo was placed in a 10 mL amber glass bottle (Gerresheimer AG, Düsseldorf, Germany), which was capped with a 10 mg sterile nasal pump (Aero Pump GmbH, Hochheim, Germany). Assembled product was primed per manufacturer's recommendations before 0.6 ml volume was administered to study participants. In a randomized fashion, study nurse administered one spray in each nostril every three minutes for the total of six sprays of either insulin or placebo. As each spray delivers 0.1 ml of fluid, and the concentration of insulin in Novolin R is 100 IU/mL, administering six sprays delivers 60 IU of insulin.\nRandom coefficient models were constructed for analyzing study outcomes. Treatment, time, treatment by time interaction, and sequence were included as fixed effects. Time nested within subjects, and time nested within treatment nested within subjects were included as random effects. […]"}, "[2]": {"conditions": "cited from earlier work"}, "[3]": {"system": "smokers, 36 hours of smoking abstinence", "experiment": "Post-spray symptom-specific subjective ratings (0-10) of pain, burn, taste (Example 2)", "assay_type": "in vivo, human", "method": "Additional outcome measures included safety measures, i.e., post-spray symptom-specific subjective ratings and adverse events. Post-spray symptom-specific subjective ratings (0-10) of burn, pain, cough, and taste were collected after each spray round. Administration instructions were one spray in each nostril every three minutes for the total of six sprays. […] Adverse events were recorded and collected following the completion of every session as well as completion of the entire study.\nas §1\nRandom coefficient models were constructed for analyzing study outcomes. Treatment, time, treatment by time interaction, and sequence were included as fixed effects. Time nested within subjects, and time nested within treatment nested within subjects were included as random effects. Adverse events are presented in a descriptive fashion. No adjustment for multiple tests was made; all p values are reported at their nominal level."}, "[4]": {"conditions": "vs 8.7% NaCl placebo, scale 0-10, three spray rounds, p≤0.05"}},
  "note": "Entries after “also recorded” stand apart in the source; their conditions may differ.",
  "data": [
    {"substance": "intranasal insulin: bulk human Regular insulin (U100 Novolin R, Novo Nordisk US), 100 IU/ml, six nasal sprays delivering 60 IU", "values": [
      {"measurement": "Smoking urges (Questionnaire of Smoking Urges) compared to placebo, replication study", "setting": "[1]; 60 IU intranasal, crossover, morning of Day 2, 36 hours abstinence, p≤0.05", "result": "decreased significantly; also recorded: This finding was replicated"},
      {"measurement": "QSU-Brief Factor 2 compared to placebo, replication study", "setting": "[1]; 60 IU, crossover, Day 2, p=0.18", "result": "no effect; also recorded: not Factor 2 scale"},
      {"measurement": "QSU-Brief Factor 1 compared to placebo, replication study", "setting": "[1]; 60 IU, crossover, Day 2, p≤0.05", "result": "significantly decreased; also recorded: the effect was driven by intranasal insulin's effect on Factor 1"},
      {"measurement": "QSU-Brief Factor 2, effect of treatment, b, replication study", "setting": "[1]; SE(b)=0.87, z=1.34, p=0.18", "result": 1.16},
      {"measurement": "QSU-Brief Factor 1, effect of treatment, b, replication study", "setting": "[1]; SE(b)=1.15, z=2.16, p≤0.05", "result": 2.49},
      {"measurement": "Smoking urges, effect of treatment, b, replication study", "setting": "[1]; SE(b)=1.91, z=1.92, p≤0.05", "result": 3.67},
      {"measurement": "CSF insulin levels and peripheral insulin levels after intranasal administration", "setting": "[2]; humans", "result": "increases CSF insulin levels without changing peripheral insulin levels"},
      {"measurement": "Time to reach the CSF", "setting": "[2]; intranasal route", "result": "within minutes"},
      {"measurement": "“taste” rating, interaction with treatment, b", "setting": "[3]; SE(b)=0.10, z=−0.75, p=0.45, not significant", "result": "−0.07"},
      {"measurement": "“pain” rating, treatment×spray number, b", "setting": "[3]; SE(b)=0.16, z=−0.47, p=0.63", "result": "−0.07"},
      {"measurement": "“burn” rating, interaction with treatment, b", "setting": "[3]; SE(b)=0.17, z=1.23, p=0.22, not significant", "result": 0.21},
      {"measurement": "“pain” rating, treatment, b", "setting": "[3]; SE(b)=0.31, z=−1.17, p=0.24", "result": "−0.36"},
      {"measurement": "“burn” rating, treatment, b", "setting": "[3]; SE(b)=0.43, z=−2.34, p≤0.05", "result": "−1.01"},
      {"measurement": "Subjective spray rating of “pain”, effect of treatment", "setting": "[3]; vs 8.7% NaCl placebo, scale 0-10, three spray rounds", "result": "No group differences were detected"},
      {"measurement": "Subjective spray rating of “burn”, effect of treatment", "setting": "[3]; [4]", "result": "Main effect of treatment was significant; also recorded: There was an effect of treatment"},
      {"measurement": "Subjective spray rating of “taste”, effect of treatment", "setting": "[3]; [4]", "result": "Main effect of treatment was significant; also recorded: there was an effect of treatment"},
      {"measurement": "Subjective spray rating of “burn”, effect of treatment", "setting": "[3]; vs 8.7% NaCl placebo, scale 0-10, three spray rounds, p≤0.05, listed as Intranasal insulin", "result": "notable burning sensation"}
    ]}
  ]
}
